In patent US8105802B2, “Method of producing microbial transglutaminase” (Ajinomoto Co., Inc., priority 2003, dated 2012):

Legend:
[1] = system: SVP70; experiment: Inhibitory activities of various compounds to SVP70 (cleavage of peptide GPSFRAPDS); assay type: biochemical, Streptoverticillium mobaraense; details: analogously to (3)-vi); concentrations shown in FIG. 5
Description: (§1) The enzyme solution was added to 20 mM sodium phosphate buffer containing peptide GPSFRAPDS (Peptide Institute) (SEQ ID NO: 11) to yield 170 μl of total liquid volume, and it was reacted at 30° C. for 10 minutes, followed by heating at 95° C. for 5 minutes to terminate the reaction. 80 μl of this solution was analyzed by HPLC under the following conditions and its activity was calculated based on the decreased amount of the substrate.
(§2) To 20 mM sodium phosphate buffer (pH 7.0) containing various compounds at the concentrations shown in FIG. 5, the purified enzyme solution was added and left for 60 minutes at room temperature. Then Gly-Pro-Ser-Phe-Arg-Ala-Pro-Asp-Ser (SEQ ID NO: 11) was added as a substrate and reacted for 10 minute at 30° C. The relative activity by adding each compound was calculated based on the Gly-Pro-Ser-Phe-Arg-Ala-Pro-Asp-Ser (SEQ ID NO: 11) cleavage activity in the absence of compounds as 100%.
The inhibitory activities of various compounds to SVP70 were examined analogously to (3)-vi).

[2] = system: SVP35; experiment: Inhibitory activities of various compounds to SVP35 (cleavage of peptide GPSFRAPDS); assay type: biochemical, Streptoverticillium mobaraense; details: concentrations shown in FIG. 5; 60 minutes at room temperature, then substrate 10 minute at 30° C., pH 7.0
Description: as §1, §2

[3] = system: Gly-Pro-Ser-Phe-Arg-Ala-Pro-Asp-Ser (SEQ ID NO: 11); experiment: Optimum temperature of the protease; assay type: biochemical
Description: To the purified enzyme solution diluted with 20 mM Tris-HCl buffer (pH 7.5) containing 5 mM calcium chloride and 0.01 mM zinc chloride Gly-Pro-Ser-Phe-Arg-Ala-Pro-Asp-Ser (SEQ ID NO: 11) was added and reacted at pH 7.0, between 5° C. and 65° C. for 10 minutes. As a result, it was shown that the Optimum temperature of SVP35 was about 45° C. and it had high activity within the range of 40° C. to 50° C.
The Optimum temperature of SVP70 was examined similarly as (3)-iv). As a result, it was shown that the Optimum temperature of SVP70 was within the range from about 50° C. to 55° C., especially around 55° C. (see FIG. 3).

[4] = system: Gly-Pro-Ser-Phe-Arg-Ala-Pro-Asp-Ser (SEQ ID NO: 11); experiment: Optimum pH of the protease (peptide cleavage in GTA buffer pH 3 to pH 10); assay type: biochemical
Description: as §1
In 0.15 M GTA buffer (buffered by 3,3-dimethyl glutaric acid, Tris (hydroxy methyl) amino methane, 2-amino-2-methyl-1,3-propanediol) from pH 3 to pH 10, SVP35 was allowed to act on Gly-Pro-Ser-Phe-Arg-Ala-Pro-Asp-Ser (SEQ ID NO: 11) as a substrate at 30° C. for 10 minutes.
The Optimum pH of SVP70 was examined similarly as (3)-ii).

[5] = system: Gly-Pro-Ser-Phe-Arg-Ala-Pro-Asp-Ser (SEQ ID NO: 11); experiment: pH stability of the protease; assay type: physicochemical
Description: To 10 μl of SVP35 purified enzyme solution, 40 μl of each pH of 0.15 M GTA buffer from pH 3 to pH 10 was added, left at 4° C. overnight, followed by addition of 0.1 M sodium phosphate buffer (pH 7.0) to the liquid volume of 400 μl, and was adjusted to pH 7.0. To these enzyme solutions, Gly-Pro-Ser-Phe-Arg-Ala-Pro-Asp-Ser (SEQ ID NO: 11) was added as a substrate, and reacted at pH 7.0, at 30° C. for 10 minutes.
The pH stability was examined similarly to (3)-iii).

[6] = system: Gly-Pro-Ser-Phe-Arg-Ala-Pro-Asp-Ser (SEQ ID NO: 11); experiment: Temperature stability of the protease; assay type: physicochemical; details: 15 minutes; activity treated at 4° C. defined as 100%
Description: To 10 μl of the purified enzyme solution, 40 μl of 20 mM Tris-HCl buffer (pH 7.5) containing 5 mM calcium chloride and 0.01 mM zinc chloride was added to treat at 4° C. or at from 30° C. to 70° C. for 15 minutes, and then cooled by ice, added 250 μl of 20 mM sodium phosphate buffer (pH 7.0). To this enzyme solution, Gly-Pro-Ser-Phe-Arg-Ala-Pro-Asp-Ser (SEQ ID NO: 11) was added as a substrate and reacted at 30° C. for 5 minutes. When the activity treated at 4° C. was defined as 100%, the remaining activity at each temperature was calculated. […] (see FIG. 4).

[7] = system: insulin B and pro-MTG; experiment: Substrate specificity (cleavage points, HPLC and sequencing of fragments); assay type: biochemical; details: 30° C., 2 hours, pH 7.5
Description: 1 mg/ml of insulin B solution and pro-MTG solution prepared in 20 mM Tris-HCl buffer (pH 7.5) containing 5 mM calcium chloride and 0.01 mM zinc chloride was used as a substrate, and an enzyme solution was added to the solution to react at 30° C. for 2 hours, and then peptide fragments were separated by HPLC under the following conditions:
The amino acid sequences of the obtained peptide fragments were analyzed by PPSQ-10 (Shimadzu Co. Ltd.) to characterize the sequences of the cleavage points for SVP35.
The substrate specificity was examined similarly as described in (3)-i).

[8] = system: pro-MTG; experiment: Conversion of pro-MTG into active MTG, substrate:enzyme 200:1 (SDS-PAGE, hydroxamate method); assay type: biochemical, Streptoverticillium mobaraense; details: substrate:enzyme=200:1, 30° C.
Description: Using pro-MTG (1 mg/ml) expressed by Corynebacterium glutamicum as a purified substrate, the neutral protease (SVP35, SVP70) from Streptoverticillium mobaraense or the neutral metalloprotease SGMP II from Streptomyces griseus was mixed in the ratio of the substrate:the enzyme=200:1, the mixture was reacted at 30° C. After 0, 1, 2, 4, 7, 20 hours, the reaction mixture was sequentially picked up, and the aliquots of the reaction mixture were mixed with SDS-PAGE sample buffer and heated at 95° C. for 3 minutes, and then subjected to SDS-PAGE according to Laemmli's method (Nature, 227, 680-685 (1970)). […] In addition, SGMP II was purified from actinase (Kakenseiyaku Co. Ltd.) according to the reference method (J. Biocem., Vol. 110, p. 339-344, 1991).

[9] = activity at pH 7.0 defined as 100%

Molecule: O[C@H](CS)[C@H](O)CS (racemic) [dithiothreitol]
- inhibition of SVP70 activity [1]: strong inhibitory action

Molecule: c1cnc2c(c1)ccc1cccnc12 [1,10-phenanthroline]
- inhibition of SVP35 Gly-Pro-Ser-Phe-Arg-Ala-Pro-Asp-Ser cleavage activity [2]: strongly inhibited
- inhibition of SVP70 activity [1]: strong inhibitory action

Molecule: O=C(O)CN(CCN(CC(=O)O)CC(=O)O)CC(=O)O [ethylene diamine tetraacetic acid]
- inhibition of SVP35 Gly-Pro-Ser-Phe-Arg-Ala-Pro-Asp-Ser cleavage activity [2]: strongly inhibited
- inhibition of SVP70 activity [1]: strong inhibitory action

Molecule: CC(C)C[C@H](NP(=O)(O)O[C@@H]1O[C@@H](C)[C@H](O)[C@@H](O)[C@H]1O)C(=O)N[C@@H](Cc1c[nH]c2ccccc12)C(=O)O [phosphoramidon]
- inhibition of SVP35 Gly-Pro-Ser-Phe-Arg-Ala-Pro-Asp-Ser cleavage activity [2]: strongly inhibited
- inhibition of SVP70 activity [1]: strong inhibitory action

Molecule: NC(N)=O [urea]
- inhibition of SVP70 activity [1]: strong inhibitory action

B1: Streptomyces subtilisin inhibitor (SSI): Streptomyces subtilisin inhibitor derived from actinomycetes (protein)
chain: DAPSALYAPSALVLTVGKGVSATTAAPERAVTLTCAPGPSGTHPAAGSACADLAAVGGDLNALTRGEDVMCPMVYDPVLLTVDGVWQGKRVSYERVFSNECEMNAHGSSVFAF
- inhibition of SVP35 Gly-Pro-Ser-Phe-Arg-Ala-Pro-Asp-Ser cleavage activity [2]: strongly inhibited
- inhibition of SVP70 activity [1]: strong inhibitory action

B2: SVP35: neutral metalloprotease of about 35,000 from the cell surface of Streptoverticillium mobaraense IFO13819 (SEQ ID NO: 6) (protein)
chain: VLRLTATPRTTALRAAALVASAAMVVVGVQTGSASASGDRDSGGLPLTLSASQRTAAIQEAQSGASATAAKIGLSGKEKLIARDVVKDADGTVHTRYERTYDGLPVLGGDLIVHEAKAGRSVTKANDATIALPSTDASLAPAAAKKSALSAAADQKTAKADGQAPRKVVWAAQGKPVLAYETVVTGVQKDGTPSELHVITDAASGKKLYQYEAIETGTGTSTYSGTVPLTTTKSGSQYQLNDGARGGHKTYDLNQGTSGTGSLFTNSTDTWGGGRQTAGVDAHYGAAVTWDFYKNVFGRNGIRNDGKAAYSRVHYGNSYVNAFWSDSCFCMTYGDGQNNKNPLTALDVAAHEMSHGVTAATAKLVYSGESGGLNEATSDIFGTAVEFYANNKTDVGDYLIGEKINIYGDGKPLRYMDKPSKDGKSKDSWYSGIGGVDVHYSSGPANHFFYLLSEGSGKKTINGVDYDSPTADGSKVTGIGRDKAQKIWYKALTTQFTSNTNYAKARTGTLNAAASLYGNNSAEYKAVAAAWSAINVK
modifications: Streptoverticillium mobaraense
- activity within 40° C. to 50° C. relative to that at 45° C. ([3]; pH 7.0, 10 minutes): ≥ 80%
- Optimum temperature ([3]; pH 7.0, between 5° C. and 65° C., 10 minutes): about 45 °C
- Optimum pH ([4]; 0.15 M GTA buffer pH 3 to pH 10, 30° C., 10 minutes): around 7.0
- activity at pH 6.0-8.0 [4, 9]: ≥ 70%
- activity at pH 6.5-7.5 [4, 9]: ≥ 80%
- activity after treatment at pH 4-10 ([5]; activity at pH 4.0 defined as 100%): ≥ 90%
- pH Stability (stable pH range) ([5]; left at 4° C. overnight at each pH, then reacted at pH 7.0, 30° C., 10 minutes): 4-10
- remaining activity after treatment at 50° C. [6]: 80%
- remaining activity after treatment at 60° C. [6]: lost its activity
- amino acids recognized at the cleavage site [7]: aromatic amino acids and hydrophobic amino acids with bulky side-chains positioned at P′ 1
- cleavage points (residue before which the substrate is cleaved) [7]: especially Phe, often Leu, sometimes Tyr, Trp, Ile, Val
- transglutaminase (TG) activity of the picked up fraction, hydroxamate method [8]: sufficient activity was confirmed
- conversion of pro-MTG to the mature form (SDS-PAGE) ([8]; 0-20 hours): converted to the mature forms
- reduction of produced MTG after long-term reaction ([8]; up to 20 hours): not reduced even after a long-term reaction
